# Measurements taken from the supplement of paper PMC10567573.
# ± gives the standard deviation.
# Experiment: protein stability index of a GFP-peptide fusion (GPS, HEK-293T) (PSI 1-6); higher = more stable
# Conditions: c terminus: a fixed tail appended
# 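Note: 24-mer peptide tiles fused after GFP, lentivirally expressed, FACS-sorted into six equal bins by GFP/DsRed ratio, decoded by Illumina sequencing, PSI is the read-weighted mean bin number.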
Sequence,protein stability index (treatment: DMSO),"protein stability index (treatment: MLN4924 1 uM, 8 h)"
AAAAAHSTPVRREVTDKEQEFAAR [EPB41L3],5.28 ± 0.47,5.18 ± 0.56
AAIFSLFFVPLSYLLMVTVILLPY [TMEM175],2.91 ± 0.11,3.01 ± 0.53
AALEAAGEGLNVIQQTTRYFSTPQ [NANOGP8],3.3 ± 0.16,3.31 ± 0.25
AARKKYNLLQDSSTSDSDLTCDSS [C18orf25],4.96 ± 0.21,4.89 ± 0.23
AAVFKETFKSLSHIDPDVLYPSLN [ALG2],2.72 ± 0.17,2.71 ± 0.22
ACGVAMELYVFGGVRSREDAQGSE [GAN],2.22 ± 0.25,2.35 ± 0.096
ACSEDSLFLRCSLRHKDEEEEDDD [DRICH1],5.32 ± 0.27,5.24 ± 0.16
ACVVQQKDARQWFAELSVDMEKIL [CCNC],2.51 ± 0.26,2.42 ± 0.17
ADDLVLTLSNPQMSLEGTEKASWL [ELF3],3.62 ± 0.29,3.85 ± 0.26
ADHGEPIGRGTKVILHLKEDQTEY [HSP90AB1],4.76 ± 0.2,4.89 ± 0.29
ADPDEMRMQALLIRERILGPSHPD [FEM1C],3.94 ± 0.33,3.94 ± 0.13
ADPVLDLPLPPPPPEPLSQVSMWD [APBB1IP],3.46 ± 0.68,3.94 ± 0.62
ADSTSFDVQLGDIILTATDGLFDN [PPTC7],3.58 ± 0.22,3.68 ± 0.26
AEAKRDAGIREAKAKQEKVSAQYL [FLOT1],4.88 ± 0.32,5.094 ± 0.024
AEKKKPKTQIVCKHFLEAIENNKY [ZC3H15],3.51 ± 0.41,3.63 ± 0.25
AFAPDFKELDENVEYEERESEFDI [RBBP5],5.38 ± 0.15,5.16 ± 0.41
AFASFTSGVVRIWDLRDQSVVRDL [TLE6],2.36 ± 0.47,2.21 ± 0.35
AFQHTPTSITLTASRVSKVNDKRR [KMT2E],3.74 ± 0.27,4.11 ± 0.47
AFQITGVWDASRAPRGTPDPGLGE [PLEKHN1],3.85 ± 0.31,3.78 ± 0.21
AFRWGAHLVQHQRIHSGEKPYECN [ZNF232],2.79 ± 0.25,2.87 ± 0.19
AFSHKSMRDRHVNMHLNLRPFDCP [ZBTB22],2.4 ± 0.15,2.47 ± 0.19
AFTEYVHAYFRGHSPSCLARVTGE [FCHO1],2.1 ± 0.28,2.22 ± 0.25

Sequence,protein stability index (treatment: DMSO),"protein stability index (treatment: MLN4924 1 uM, 8 h)"
AGGGGGGAGAGAPGGGRLLLSTSL [INTS3],3.19 ± 0.12,2.94 ± 0.24
AGLENTVAETECRYALQLQQIQGL [KRT13],3.12 ± 0.24,2.91 ± 0.19
AGTPGYLSPEVLRKEAYGKPVDIW [CAMK2B],3.29 ± 0.15,3.31 ± 0.14
AHFYGVKLEGKVPMHKLFLEMLEA [ESRRA],2.46 ± 0.51,2.12 ± 0.034
AHSAAVTASGDCYTFGSNQHGQLG [NEK8],3.81 ± 0.2,3.94 ± 0.35
AILVKVQLDALPFFVITMIKIVLI [SLC29A1],3.23 ± 0.22,3.23 ± 0.37
AIWDDTDSMYGECRTYIIHYYLMD [EFHC1],2.83 ± 0.52,2.67 ± 0.64
AKVDSSGVIDLFGDAFGSSASEPQ [SNAP91],4.47 ± 0.23,4.57 ± 0.19
AKVESMDQEIKFFRCLFEAEITQI [KRT71],2.01 ± 0.51,2.19 ± 0.15
AKVYVGVKQEIAEMRIPALNAYMK [NCF4],2.13 ± 0.2,2.32 ± 0.29
ALALANSDSVHIEDAEAVEQLREA [ESRRA],5.18 ± 0.3,5.26 ± 0.28
ALHPERAMDNHSDSEEELAAFCPQ [RETREG3],5.42 ± 0.12,5.37 ± 0.24
ALPPLRTRSKSDPVLHPSEERAAP [FAM189A2],5.64 ± 0.39,5.58 ± 0.2
ALRPTAFSGCLNCSKVSELTERLK [EMID1],2.74 ± 0.37,2.97 ± 0.47
ALSKHFIPYNAKFLGSTEVEQPKG [GULP1],3.19 ± 0.23,3.55 ± 0.2
ALSTERELFAWGRGDSGRLGLGTR [NEK8],3.56 ± 0.17,3.46 ± 0.42
ALVSAHSEWQRKLEAAEALLTLRN [DMRTC1],3.44 ± 0.24,3.57 ± 0.17
AMLDEISLMDLAIEEGFNPVQASQ [NFE2L1],3.53 ± 0.39,3.66 ± 0.2
ANSLLASPTGLSPYLRFGCLSCRL [CRY1],2.15 ± 0.27,2.37 ± 0.32
APAVEVAPAGASYNPSFEDHQTLL [NOP53],4.84 ± 0.12,5.14 ± 0.25
APDRLRASASCSHWRECLFYPALW [FBXO33],2.33 ± 0.43,2.28 ± 0.26
APGDLSATEPATCFPSTQKPTEPS [FBF1],5.22 ± 0.22,5.343 ± 0.051

Sequence,protein stability index (treatment: DMSO),"protein stability index (treatment: MLN4924 1 uM, 8 h)"
APGPSRIADYLLLPLAEREHVSRA [TRIB1],3 ± 0.46,3.38 ± 0.77
APGVLTNKRKTYTESYIARPDGDC [ZC2HC1A],4.27 ± 0.12,4.29 ± 0.3
AQEEEEEDQGRTRKRKQSGHSPAR [DDIT3],5.47 ± 0.31,5.7 ± 0.24
AQQWRRARHNYNDLCPPIGRRAAT [GNAS],3.58 ± 0.3,3.6 ± 0.16
ARAFAQRYLADLLPSVFGSLRDSG [RSPH3],2.29 ± 0.41,2.25 ± 0.28
ASAIKKEELVARSETHAAGHSQEK [CHGB],5.4 ± 0.43,5.37 ± 0.31
ASAQPLPAPEAAHTTGPTGSAPNS [TFE3],5.35 ± 0.18,5.46 ± 0.15
ASCLQELFKAHFRGEVLPEEITEE [INTS3],3.71 ± 0.34,3.95 ± 0.12
ASEPLPWDLRFRIIHETAVGMNFL [RIPK4],2.43 ± 0.15,2.33 ± 0.19
ASFYACRLDKHLYVIGGRNETGYL [KLHL14],2.7 ± 0.54,2.54 ± 0.95
ASSGSNSSASSEQGLLGRSPPTRP [SPRY1],5.19 ± 0.34,5.38 ± 0.2
ASVSSHRFFGPNAEISQPPALSQL [TCF25],3.35 ± 0.46,3.29 ± 0.35
ASYDKTVRAWDLETGKLLWKVRYD [WDR88],2.31 ± 0.4,2.14 ± 0.31
ASYVVFRIIYMLLITIATFQIAAN [SLC19A2],3.09 ± 0.94,3.19 ± 0.18
ATGDYLFEPHSGEDYSRDEDHIAH [SRPK2],5.23 ± 0.2,5.28 ± 0.27
ATVWSSNVGRVHRVAKKLQSGLVW [ALDH8A1],2.81 ± 0.87,2.24 ± 0.96
ATWMLEVCEEQKCEEEVFPLAMNY [CCND1],3.61 ± 0.16,3.77 ± 0.25
AVGGRDDTTELSSAERYNPRTNQW [KLHL20],4.47 ± 0.21,4.5 ± 0.16
AVRKLKFARHIKKSEGQKIPKVEL [GULP1],3.1 ± 0.091,3.13 ± 0.21
AVSQPFRLSSSLQGSAVTLKTSKM [CDC14A],3.77 ± 0.3,3.71 ± 0.28
AVWLIFFMLGLGTLLPWNFFMTAT [SLC29A1],3.09 ± 0.66,2.6 ± 0.12
